Measurements: patent publication US20250129163A1

Target: FcγRIIIa-bio (UniProt P08637)
Assay: BLI (Fortebio), FcγRIIIa-bio immobilized on SA sensor, antibody 31.3-500 nM, 1:1 fit

UniProt P08637, sequence (P08637 17-208 limits assumed): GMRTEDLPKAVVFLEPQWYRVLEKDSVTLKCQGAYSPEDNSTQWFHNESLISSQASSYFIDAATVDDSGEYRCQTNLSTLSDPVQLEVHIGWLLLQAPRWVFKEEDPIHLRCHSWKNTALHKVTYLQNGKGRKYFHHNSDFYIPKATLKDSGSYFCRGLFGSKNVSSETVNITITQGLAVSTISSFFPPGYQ

Kd: 141 nM
koff: 0.0342 s⁻¹
kon: 243000 M⁻¹ s⁻¹
Substance: MEDI9447 (Oleclumab) (antibody)
